In IntAct's records for PubMed 23217712:

Legend:
pcl2_yeast PCL2 = pcl2_yeast PCL2 (UniProt P25693)
clg1_yeast CLG1 = clg1_yeast CLG1 (UniProt P35190)
cg13_yeast CLN3 = cg13_yeast CLN3 (UniProt P13365)
Sequence of cg13_yeast CLN3 (P13365 whole entry): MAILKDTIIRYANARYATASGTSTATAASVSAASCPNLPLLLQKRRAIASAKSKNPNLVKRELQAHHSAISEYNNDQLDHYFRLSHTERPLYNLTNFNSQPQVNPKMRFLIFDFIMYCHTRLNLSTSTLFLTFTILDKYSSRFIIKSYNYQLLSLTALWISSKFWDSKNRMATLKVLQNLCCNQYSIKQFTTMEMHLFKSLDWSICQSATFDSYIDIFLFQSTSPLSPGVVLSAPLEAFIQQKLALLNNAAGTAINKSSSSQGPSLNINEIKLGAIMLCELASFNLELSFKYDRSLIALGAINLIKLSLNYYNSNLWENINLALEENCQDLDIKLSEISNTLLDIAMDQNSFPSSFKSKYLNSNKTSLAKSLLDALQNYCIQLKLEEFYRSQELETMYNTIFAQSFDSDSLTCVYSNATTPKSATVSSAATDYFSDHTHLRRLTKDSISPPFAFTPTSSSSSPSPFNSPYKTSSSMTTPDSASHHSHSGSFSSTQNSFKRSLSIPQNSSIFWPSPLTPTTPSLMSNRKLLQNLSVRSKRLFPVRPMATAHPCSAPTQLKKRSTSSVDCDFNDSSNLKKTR

Sequence of pcl2_yeast PCL2 (P25693 whole entry): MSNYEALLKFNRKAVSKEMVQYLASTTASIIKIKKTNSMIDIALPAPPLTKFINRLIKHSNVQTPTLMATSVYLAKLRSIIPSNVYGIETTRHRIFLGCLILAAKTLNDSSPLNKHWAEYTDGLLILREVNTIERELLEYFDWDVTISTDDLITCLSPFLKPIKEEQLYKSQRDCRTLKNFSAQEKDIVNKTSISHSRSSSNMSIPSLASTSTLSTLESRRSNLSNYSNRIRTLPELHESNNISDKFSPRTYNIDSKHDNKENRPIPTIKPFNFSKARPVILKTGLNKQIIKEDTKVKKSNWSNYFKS
Sequence of clg1_yeast CLG1 (P35190 whole entry): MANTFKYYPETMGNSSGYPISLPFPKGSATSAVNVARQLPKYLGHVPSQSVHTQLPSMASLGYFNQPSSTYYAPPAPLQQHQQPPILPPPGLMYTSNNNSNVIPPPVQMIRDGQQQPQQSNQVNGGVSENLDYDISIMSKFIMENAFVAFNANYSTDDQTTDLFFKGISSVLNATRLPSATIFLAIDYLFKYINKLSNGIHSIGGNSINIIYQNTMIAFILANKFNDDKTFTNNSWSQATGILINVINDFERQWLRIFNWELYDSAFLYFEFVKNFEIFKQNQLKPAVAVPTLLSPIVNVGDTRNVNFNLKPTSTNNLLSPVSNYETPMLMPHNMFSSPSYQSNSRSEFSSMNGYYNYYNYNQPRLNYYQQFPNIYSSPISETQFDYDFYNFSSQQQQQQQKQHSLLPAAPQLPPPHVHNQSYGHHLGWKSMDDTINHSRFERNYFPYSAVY

## Heat shock protein SSA1 (Saccharomyces cerevisiae), P10591 T36E
pcl2_yeast PCL2
  effect of a mutation on the interaction: decreasing interaction strength
clg1_yeast CLG1
  effect of a mutation on the interaction: decreasing interaction strength

## Heat shock protein SSA1 (Saccharomyces cerevisiae), P10591 T36A
cg13_yeast CLN3
  effect of a mutation on the interaction: disrupting interaction strength
pcl2_yeast PCL2
  effect of a mutation on the interaction: increasing interaction strength
clg1_yeast CLG1
  effect of a mutation on the interaction: increasing interaction strength
